The supplement of paper PMC10126150
± gives the standard deviation of the averaged measurements.

These sequences were tested on ATP (assay: switch fluorescence ratio, 500 uM ATP over buffer (Cy3 cluster intensity, sum of 5 cycles each) (fold (ratio)); higher = stronger signal-on switching upon ATP binding; sequences stand for … in TCGTCGGCAGCGTCAGATGTGTATAAGAGACAGTTTTTTTTTTTTTTTTTTTTTTTTT…TC). Conditions: aptamer strand: ATP DNA aptamer (quencher-CACCTGGGGGAGTATTGCGGAGGAAGG + anchor), 100 nM annealed; ATP concentration: 500 uM.
Procedure, shortened: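 Cy3-labelled switching-strand clusters on a modified Illumina MiSeq flow-cell were annealed to 100 nM quencher-labelled ATP aptamer and imaged first in selection buffer, then after 15 min with 500 uM ATP at 22 °C. NaOH stripping and re-annealing separated each of five buffer/ATP cycles, and clusters outside 100-1000 RFU were excluded. The fluorescence ratio sums target-cycle Cy3 intensity over buffer-cycle Cy3 intensity per cluster and averages it per switch-domain sequence.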
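Further: ATP exposure 15 min at 22 °C before imaging.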

Sequence | switch fluorescence ratio
ACTAAGGGG | 1.25 ± 0.35
AGTACCATGG | 1.01 ± 0.06
CCCTGGACGG | 0.9883 ± 0.0053
CTCAGGCTTG | 0.997 ± 0.052
CAGAAAGAGC | 0.969 ± 0.0086
TCACTTAATA | 0.994 ± 0.014
GGCTACTGGA | 1.03 ± 0.095
TGGGGAAGGG | 0.989 ± 0.039
CTATGTTGGT | 0.9562 ± 0.0062
CACCGAGTTT | 0.987 ± 0.02
GGGTACGTCA | 1.03 ± 0.071
TGAGTACTGA | 1.02 ± 0.024
GTTGAGAGTC | 0.995 ± 0.038
ATCATACGGG | 1.03 ± 0.02
CTAGCTGCGA | 1.08 ± 0.055
CATCGTTGGT | 0.999 ± 0.0029
GGCCATTGTG | 0.982 ± 0.023
GGAATGTGGG | 0.984 ± 0.042
CATATTTAGG | 0.949 ± 0.028
ATAAAGACGT | 1.02 ± 0.037
TGAAGGGGAG | 1.01 ± 0.069
AGGTTTGGTT | 1.01 ± 0.04
TTGGTAATGG | 1.04 ± 0.051

Sequence | switch fluorescence ratio
AATAGTTTTT | 0.986 ± 0.055
TTGACAGGGC | 0.952 ± 0.057
GGAAAGGGAT | 0.991 ± 0.012
ATACGTGGCA | 0.9601 ± 0.0037
GCTAATGTTA | 1.01 ± 0.03
TCGGGATACG | 1.14 ± 0.021
TTCGATAAGA | 0.999 ± 0.06
ATTCAGAGTG | 0.965 ± 0.02
AGTTTTTGGC | 0.999 ± 0.021
AAAGTTTTCA | 1.02 ± 0.028
GCCGGGTCCG | 0.9938 ± 0.0011
TTTGCCATTT | 1.02 ± 0.033
TCCAGGGGGT | 2.41 ± 0.044
GAAATTTAGG | 0.9938 ± 0.0046
TTGGCGGGCA | 0.998 ± 0.027
ATTTGTCTGG | 0.9643 ± 0.0028
CGGAAATGGG | 1.023 ± 0.0022
ACATCTAGGC | 1.069 ± 0.0093
TCTTGGTTTT | 1.02 ± 0.044
TTTTTAGAGA | 0.9912 ± 0.007
AGGCACGACG | 0.9561 ± 0.0074
AAGTGGGGCG | 1.02 ± 0.034
TTATATTAGC | 1 ± 0.054

Sequence | switch fluorescence ratio
GAGAAATACG | 1.47 ± 0.08
TTTGTCAGGT | 0.9692 ± 0.0021
CGGGGAAGGA | 1.016 ± 0.006
GTTGGTACTT | 0.991 ± 0.02
CTAGGCTAGG | 0.9885 ± 0.0012
ATCGAAAAGG | 0.998 ± 0.027
TAAGTGTTGG | 1 ± 0.018
ATTGAATTAG | 0.961 ± 0.011
TTTTAAGGAA | 1.04 ± 0.071
AAGTAGGAGC | 1.06 ± 0.19
TTTGATTGCA | 1.03 ± 0.068
ATCGAGGCGT | 1.01 ± 0.019
AGTTATACAC | 1.014 ± 0.0099
GGGGATAACA | 1.028 ± 0.00063
TTTGTGTATA | 0.976 ± 0.057
GACCATTTGT | 0.995 ± 0.033
AGAGGTATCG | 0.995 ± 0.019
ATCTATCCTT | 1.01 ± 0.036
ATATTGGGGT | 1.01 ± 0.019
CAGGGCGGA | 0.993 ± 0.015
ATGAGGTAGG | 1.03 ± 0.05
TCGTACGCTA | 3.38 ± 0.084
TGGGGTAAGA | 1.02 ± 0.015

Sequence | switch fluorescence ratio
GTTGTGTCGG | 1.01 ± 0.019
AGGTAACGGG | 0.987 ± 0.0099
TTTTAGCTTC | 1.03 ± 0.017
ATGGTGGGGA | 1.03 ± 0.03
AGTAAGACAG | 0.986 ± 0.08
GAAAGTGCTA | 1.07 ± 0.03
TCCTGTACTG | 1.04 ± 0.062
CCTGTAGTCT | 1.04 ± 0.039
TCCGCAGATT | 4.02 ± 0.047
TACGGGGTG | 1.05 ± 0.035
TTGGCCTAAA | 0.954 ± 0.04
GGGATCGCTA | 1 ± 0.018
TATTTTGAGT | 0.989 ± 0.012
GTGTTCGGGC | 1.02 ± 0.011
CTCGGGGATG | 0.976 ± 0.013
CCTAAAAAGG | 1.26 ± 0.29
GCCGCCTGAT | 0.986 ± 0.021
TACGATTAGT | 0.9995 ± 0.0053
GGAGTAGCTA | 1.03 ± 0.04
TTAGTTTCAG | 1.012 ± 0.0033
TTTTTTTCCA | 1.02 ± 0.013
TGGGGGGACC | 1.03 ± 0.05
TTATCTTACA | 0.996 ± 0.059

Sequence | switch fluorescence ratio
GAATGCGGAA | 1.0339 ± 0.00078
TTTTATTAAT | 0.978 ± 0.04
AGGATGGGCG | 0.928 ± 0.039
CGTCAGGCAT | 1.17 ± 0.026
TTGAGCGAGG | 0.961 ± 0.01
GAACGGAATT | 1.19 ± 0.023
GTGTGTAGGG | 0.999 ± 0.039
GGAAGGTTTT | 0.97669 ± 0.00029
ATAAGGGAGG | 0.979 ± 0.022
AAATTACTAG | 1.01 ± 0.048
TCGGGTTCCG | 0.963 ± 0.019
GCGTGTGGGG | 1.02 ± 0.021
CAGGTCGACG | 1.05 ± 0.032
CGGGTTGGGT | 1.01 ± 0.049
CTCCAAGTGA | 1.315 ± 0.0062
ATTGATTCAA | 0.996 ± 0.02
TGCAGGATAT | 1.61 ± 0.57
ACGTGCGGAG | 1.01 ± 0.016
ACATTCACGT | 1.52 ± 0.033
ATGGGGTGTC | 0.943 ± 0.067
GCTATATGGC | 1.01 ± 0.024
GTATGTCGGT | 0.997 ± 0.051
TCGGAGTGGC | 1.2 ± 0.19

Sequence | switch fluorescence ratio
CTCCTAGTCA | 1.05 ± 0.061
AATCGCGGCT | 1.01 ± 0.029
ATAGATCCTT | 0.9996 ± 0.0087
GATGGGATGG | 0.993 ± 0.039
GGGGGCCTAA | 1 ± 0.028
TATCATATTA | 1 ± 0.037
ATGTTTATAG | 0.98 ± 0.024
AGAGAAGTGA | 0.986 ± 0.032
TTAAATTAAT | 0.976 ± 0.047
GCGTGTTAGT | 1.023 ± 0.0021
GGGCCGGTTT | 1 ± 0.026
TTTTAAACGT | 1.04 ± 0.039
TAAAGGGGAT | 1.08 ± 0.16
GGCGCGTTAG | 1.02 ± 0.06
CATTTTTTTG | 1 ± 0.017
GACGACGTGT | 1.43 ± 0.35
TGTTTTATGG | 0.9871 ± 0.008
GGGGCTCTGT | 1 ± 0.012
ATTAGAAGGT | 0.994 ± 0.051
GCACGGGGCA | 1.01 ± 0.023
GTGTCCGGGC | 0.979 ± 0.025
GGGTTGGACG | 1.02 ± 0.053
GTGGCACG | 1.01 ± 0.025

Sequence | switch fluorescence ratio
GGGAGGCATG | 0.936 ± 0.13
GGGTAGACTT | 0.996 ± 0.013
TTTTTTGC | 0.955 ± 0.011
GGAAACGATT | 1.01 ± 0.035
CGAGAGGCGA | 1.05 ± 0.027
TAGATAAACT | 0.9969 ± 0.0039
CATTTGGGCC | 0.999 ± 0.017
GGAAGGGTTG | 1 ± 0.034
TTTGGGTATC | 0.982 ± 0.041
AGTAATTTGC | 1.02 ± 0.012
AAGATTGGGG | 0.977 ± 0.019
AGTTTGAAAG | 1.01 ± 0.017
CCAGTCATTT | 1.03 ± 0.027
TTTTGGTATT | 1.02 ± 0.044
CGACTGGGAG | 0.981 ± 0.026
ATTGGAAGAC | 1.06 ± 0.12
GTGCCTGATG | 1.05 ± 0.046
GGGTTTGGAA | 0.961 ± 0.027
CGTTTCTTTT | 0.997 ± 0.02
